Assay results as given in patent US11224632B2 (priority 2016, dated 2022).
“Also recorded” adds a separate entry of the source. Where no end group is shown, it is not given here. [ ]: non-standard residue; d: D form.

Experiments:
CaV2.2 channel = CaV2.2 channel (Homo sapiens, UniProt Q00975); format: cell-based
CaV1.2 channel = target: T1, CaV1.2 channel (Oryctolagus cuniculus, UniProt P15381); assay: whole cell patch clamp of CaV1.2-mediated ion currents in tsA201 cells co-expressing CaV1.2 and CaVbeta2e; format: cell-based, rabbit; details: 150 nM peptide
T1 construct: The coding regions of the two different alpha1 pore-forming units (CaValpha1) of the voltage-dependent calcium channel were fused in frame; expressed in transfected cells; host or cells: tsA201 cells, transient co-transfection
T1 sequence (P15381 whole entry, the tested form may be a part): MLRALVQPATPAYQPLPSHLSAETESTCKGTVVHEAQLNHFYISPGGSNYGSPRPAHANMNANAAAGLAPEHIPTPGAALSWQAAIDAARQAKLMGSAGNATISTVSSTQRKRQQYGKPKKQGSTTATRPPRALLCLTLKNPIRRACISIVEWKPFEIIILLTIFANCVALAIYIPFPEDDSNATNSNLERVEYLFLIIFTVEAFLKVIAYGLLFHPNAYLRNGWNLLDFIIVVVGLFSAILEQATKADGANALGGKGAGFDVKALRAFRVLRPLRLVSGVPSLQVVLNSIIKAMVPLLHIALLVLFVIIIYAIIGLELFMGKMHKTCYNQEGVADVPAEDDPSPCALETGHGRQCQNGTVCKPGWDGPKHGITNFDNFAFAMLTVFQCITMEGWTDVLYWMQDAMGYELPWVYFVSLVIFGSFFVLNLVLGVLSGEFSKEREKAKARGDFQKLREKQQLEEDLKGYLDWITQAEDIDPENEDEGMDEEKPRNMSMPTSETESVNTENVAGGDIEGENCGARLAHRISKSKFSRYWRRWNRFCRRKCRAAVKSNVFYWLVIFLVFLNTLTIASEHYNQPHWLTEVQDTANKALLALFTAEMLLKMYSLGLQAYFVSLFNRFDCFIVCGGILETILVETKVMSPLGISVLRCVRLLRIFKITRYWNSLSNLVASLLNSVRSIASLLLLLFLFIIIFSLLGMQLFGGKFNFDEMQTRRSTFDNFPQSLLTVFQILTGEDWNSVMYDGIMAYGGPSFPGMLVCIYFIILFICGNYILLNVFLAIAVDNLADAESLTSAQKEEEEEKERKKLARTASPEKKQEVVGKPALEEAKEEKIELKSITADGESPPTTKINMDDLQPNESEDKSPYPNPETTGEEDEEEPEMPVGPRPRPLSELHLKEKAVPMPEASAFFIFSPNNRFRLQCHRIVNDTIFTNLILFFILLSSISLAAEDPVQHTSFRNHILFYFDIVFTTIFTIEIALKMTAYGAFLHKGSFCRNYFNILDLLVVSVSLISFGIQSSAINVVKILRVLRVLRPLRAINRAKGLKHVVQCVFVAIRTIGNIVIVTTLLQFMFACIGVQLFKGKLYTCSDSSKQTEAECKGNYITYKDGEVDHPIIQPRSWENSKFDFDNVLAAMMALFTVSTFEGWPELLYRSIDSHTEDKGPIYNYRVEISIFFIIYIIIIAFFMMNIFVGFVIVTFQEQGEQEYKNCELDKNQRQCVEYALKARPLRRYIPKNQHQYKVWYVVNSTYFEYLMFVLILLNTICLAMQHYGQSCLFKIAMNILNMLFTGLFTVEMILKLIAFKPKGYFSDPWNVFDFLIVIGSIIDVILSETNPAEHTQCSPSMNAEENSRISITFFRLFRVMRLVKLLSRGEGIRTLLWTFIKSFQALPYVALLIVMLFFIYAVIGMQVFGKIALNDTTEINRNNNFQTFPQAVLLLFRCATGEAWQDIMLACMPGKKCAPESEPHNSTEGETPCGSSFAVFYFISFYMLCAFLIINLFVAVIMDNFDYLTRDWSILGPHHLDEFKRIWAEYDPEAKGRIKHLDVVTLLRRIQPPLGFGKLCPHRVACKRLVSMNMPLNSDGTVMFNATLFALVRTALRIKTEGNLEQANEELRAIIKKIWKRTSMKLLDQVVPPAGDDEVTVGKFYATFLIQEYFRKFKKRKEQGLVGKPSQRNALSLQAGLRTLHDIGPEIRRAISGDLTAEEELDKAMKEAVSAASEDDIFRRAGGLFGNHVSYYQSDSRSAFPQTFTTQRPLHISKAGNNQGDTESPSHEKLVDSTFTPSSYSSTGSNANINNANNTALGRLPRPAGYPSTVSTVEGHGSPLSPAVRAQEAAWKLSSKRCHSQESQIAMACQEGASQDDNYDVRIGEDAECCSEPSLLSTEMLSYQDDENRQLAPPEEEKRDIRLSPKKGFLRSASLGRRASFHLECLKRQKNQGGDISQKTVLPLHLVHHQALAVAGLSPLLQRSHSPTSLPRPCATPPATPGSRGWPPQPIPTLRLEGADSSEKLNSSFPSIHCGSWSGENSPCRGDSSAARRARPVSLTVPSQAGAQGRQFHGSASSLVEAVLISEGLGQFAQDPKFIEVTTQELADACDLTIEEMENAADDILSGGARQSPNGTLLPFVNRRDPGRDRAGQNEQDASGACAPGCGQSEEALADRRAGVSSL
T1 sequence (Q8VGC3 1-611 isoform Q8VGC3-4 partner): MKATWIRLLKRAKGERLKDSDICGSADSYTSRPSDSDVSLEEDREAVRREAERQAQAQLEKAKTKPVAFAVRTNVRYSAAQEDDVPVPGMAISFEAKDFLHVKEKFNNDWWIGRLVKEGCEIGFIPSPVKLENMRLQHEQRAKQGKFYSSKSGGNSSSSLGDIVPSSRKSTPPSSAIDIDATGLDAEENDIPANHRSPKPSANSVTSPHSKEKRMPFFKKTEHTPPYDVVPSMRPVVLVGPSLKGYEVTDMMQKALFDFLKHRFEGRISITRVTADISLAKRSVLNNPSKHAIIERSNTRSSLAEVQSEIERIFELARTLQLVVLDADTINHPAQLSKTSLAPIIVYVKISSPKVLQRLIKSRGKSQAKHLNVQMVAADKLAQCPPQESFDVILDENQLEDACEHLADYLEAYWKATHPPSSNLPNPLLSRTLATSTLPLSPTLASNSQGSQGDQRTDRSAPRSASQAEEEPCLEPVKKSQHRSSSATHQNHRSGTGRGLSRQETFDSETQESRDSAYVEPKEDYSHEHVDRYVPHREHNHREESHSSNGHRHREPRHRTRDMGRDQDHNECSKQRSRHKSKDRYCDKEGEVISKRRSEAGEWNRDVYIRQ

CaV2.2 channel, sequence (Q00975 whole entry, looked up): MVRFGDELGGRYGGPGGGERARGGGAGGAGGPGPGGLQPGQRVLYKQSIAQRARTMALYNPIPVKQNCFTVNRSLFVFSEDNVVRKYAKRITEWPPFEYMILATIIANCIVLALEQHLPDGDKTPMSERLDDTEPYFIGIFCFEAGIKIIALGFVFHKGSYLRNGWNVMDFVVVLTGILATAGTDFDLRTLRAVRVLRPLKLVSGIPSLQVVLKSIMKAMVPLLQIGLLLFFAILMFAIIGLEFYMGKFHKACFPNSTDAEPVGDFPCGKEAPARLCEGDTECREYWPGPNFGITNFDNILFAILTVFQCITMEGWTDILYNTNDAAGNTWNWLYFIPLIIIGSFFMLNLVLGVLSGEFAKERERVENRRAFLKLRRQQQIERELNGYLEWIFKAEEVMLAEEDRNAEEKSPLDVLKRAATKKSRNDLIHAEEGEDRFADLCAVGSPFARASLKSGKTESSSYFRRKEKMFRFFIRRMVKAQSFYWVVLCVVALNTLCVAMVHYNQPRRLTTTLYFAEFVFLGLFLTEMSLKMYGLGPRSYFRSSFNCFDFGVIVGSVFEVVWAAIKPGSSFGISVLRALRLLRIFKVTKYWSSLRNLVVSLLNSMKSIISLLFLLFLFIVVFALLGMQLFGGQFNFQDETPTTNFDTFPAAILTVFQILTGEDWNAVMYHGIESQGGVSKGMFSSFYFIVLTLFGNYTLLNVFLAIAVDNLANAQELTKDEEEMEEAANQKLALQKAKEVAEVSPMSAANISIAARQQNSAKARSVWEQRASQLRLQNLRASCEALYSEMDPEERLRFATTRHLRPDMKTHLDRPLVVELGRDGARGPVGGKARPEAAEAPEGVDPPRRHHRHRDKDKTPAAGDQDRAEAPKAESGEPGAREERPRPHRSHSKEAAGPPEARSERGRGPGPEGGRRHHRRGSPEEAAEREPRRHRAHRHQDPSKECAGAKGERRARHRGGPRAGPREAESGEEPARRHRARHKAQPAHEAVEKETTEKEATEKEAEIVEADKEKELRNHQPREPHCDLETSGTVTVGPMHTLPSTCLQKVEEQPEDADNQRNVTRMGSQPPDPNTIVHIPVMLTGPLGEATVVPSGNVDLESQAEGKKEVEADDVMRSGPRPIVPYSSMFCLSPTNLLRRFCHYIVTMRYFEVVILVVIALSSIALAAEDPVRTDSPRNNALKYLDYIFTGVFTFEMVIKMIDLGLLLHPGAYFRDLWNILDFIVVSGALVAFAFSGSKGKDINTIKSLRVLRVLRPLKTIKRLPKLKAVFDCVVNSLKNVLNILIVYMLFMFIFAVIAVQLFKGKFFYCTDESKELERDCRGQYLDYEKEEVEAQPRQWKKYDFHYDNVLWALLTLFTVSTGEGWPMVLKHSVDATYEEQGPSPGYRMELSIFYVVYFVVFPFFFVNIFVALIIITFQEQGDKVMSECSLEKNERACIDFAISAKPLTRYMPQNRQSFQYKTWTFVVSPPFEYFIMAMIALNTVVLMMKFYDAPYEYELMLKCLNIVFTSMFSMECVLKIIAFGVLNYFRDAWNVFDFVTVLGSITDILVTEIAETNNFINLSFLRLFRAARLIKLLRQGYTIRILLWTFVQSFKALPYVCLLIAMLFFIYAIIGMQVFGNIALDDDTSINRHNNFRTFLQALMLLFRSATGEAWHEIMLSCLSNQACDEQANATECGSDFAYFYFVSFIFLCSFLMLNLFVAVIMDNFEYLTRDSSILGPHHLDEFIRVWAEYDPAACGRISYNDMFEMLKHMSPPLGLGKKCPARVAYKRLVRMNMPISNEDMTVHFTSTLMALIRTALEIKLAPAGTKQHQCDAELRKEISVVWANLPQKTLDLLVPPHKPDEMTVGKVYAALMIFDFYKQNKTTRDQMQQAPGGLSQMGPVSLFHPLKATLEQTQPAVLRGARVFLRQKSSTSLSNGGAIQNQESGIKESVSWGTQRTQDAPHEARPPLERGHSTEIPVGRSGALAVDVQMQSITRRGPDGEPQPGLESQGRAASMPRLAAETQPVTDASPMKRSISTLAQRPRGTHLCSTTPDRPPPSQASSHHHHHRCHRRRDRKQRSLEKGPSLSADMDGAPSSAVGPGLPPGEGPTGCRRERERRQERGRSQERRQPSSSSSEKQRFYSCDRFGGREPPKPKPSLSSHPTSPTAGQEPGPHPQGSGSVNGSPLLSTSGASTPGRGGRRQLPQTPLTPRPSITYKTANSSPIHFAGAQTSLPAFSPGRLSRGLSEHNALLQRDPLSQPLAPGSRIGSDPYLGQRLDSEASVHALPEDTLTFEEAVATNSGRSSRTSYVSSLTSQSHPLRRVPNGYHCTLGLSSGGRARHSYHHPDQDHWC

| Substance | effect on CaV2.2-mediated ion currents (control blocker) (CaV2.2 channel) | change in voltage-dependent activation of the CaV2.2 channel (activation curve) (CaV2.2 channel) | effect on CaV2.2-mediated ion current (CaV2.2 channel) | reduction in the ion current at all tested voltages (current-to-voltage plot) (CaV2.2 channel) | voltage dependency of activation of the CaV1.2 channel (CaV1.2 channel) | effect on CaV1.2-mediated ion current (CaV1.2 channel; pulses -90 mV to +10 mV) | reversibility of inhibition of CaV2.2 current (CaV2.2 channel) |
| --- | --- | --- | --- | --- | --- | --- | --- |
| omega-conotoxin [reference compound] | interrupted |  |  |  |  |  |  |
| ptlhthnrrrrr ([dP][dT][dL][dH][dT][dH][dN][dR][dR][dR][dR][dR]) [RD2] |  | not accompanied by a change in voltage-dependent activation of the channel | significant reduction in the ion current; also recorded: blocks the CaV2.2 channel | up to 55% | not affected | remained virtually unchanged; also recorded: insensitive |  |
| rprtrlhthrnr ([dR][dP][dR][dT][dR][dL][dH][dT][dH][dR][dN][dR]) [D3] |  | not accompanied by a change in voltage-dependent activation of the channel | significant reduction in the ion current; also recorded: blocks the CaV2.2 channel | up to 54% |  |  | reversible |
